From the supplement of paper PMC12042874
± gives the uncertainty stated by the source.

Experiment: amyloid nucleation score (Sup35N fusion, yeast selection) (log enrichment); library NNK3; higher = more nucleation; inactive = no reads after selection
Method in brief: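 Plasmid inserts were Illumina-sequenced at input and output from psi-negative yeast expressing Sup35N fused to peptides of 20 random codons. The yeast were induced with 100 μM copper sulfate for 24 hours and grown 7 days at 30°C on medium lacking adenine and uracil, and sequences with under 100 input reads were excluded. Nucleation score is the DiMSum log enrichment of output over input reads, centred on the mode score of non-aggregating sequences.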

NLIFRFPLAIKWSLFSLDCL
amyloid nucleation score: inactive

NLLSAVY
amyloid nucleation score: 0.787 ± 0.28

NLLVFDACHGVIRYGKTRVA
amyloid nucleation score: inactive

NLLWIISHNMNGVSRIISSV
amyloid nucleation score: inactive

NLMRSILWVEYVQDCNCCSG
amyloid nucleation score: 2.54 ± 0.07

NLNSFSGAFVLIWGATVHFC
amyloid nucleation score: 1.96 ± 0.075

NLNWGTLSTRFYCVEDS
amyloid nucleation score: inactive

NLNYNLSPLTEYSVSD
amyloid nucleation score: inactive

NLPNGMFKIHVDG
amyloid nucleation score: inactive

NLRFRSIFSS
amyloid nucleation score: inactive

NLSSSDTRSVCASWVTR
amyloid nucleation score: inactive

NLTVGSTILIPC
amyloid nucleation score: inactive

NLTYVMGSGWLLYQCVIM
amyloid nucleation score: 2.61 ± 0.057

NLVACIVNTCYL
amyloid nucleation score: 1.52 ± 0.14

NLVGTMATRYCRAHQEAREW
amyloid nucleation score: inactive

NLVYLLLRLYMMTFYQQRCP
amyloid nucleation score: inactive

NLYMGRPKRRVIGYLVACFA
amyloid nucleation score: inactive

NLYMLNTQGMSVLISCVGRI
amyloid nucleation score: 0.996 ± 0.091

NMCSFFFRVSPVLQVQVSLV
amyloid nucleation score: 1.61 ± 0.075

NMENLKRGFVIWS
amyloid nucleation score: inactive

NMFCVPYVKVESGCIMKRGN
amyloid nucleation score: 1.91 ± 0.06

NMFPGSISLEWWGGTQLRWE
amyloid nucleation score: 0.909 ± 0.23

NMGTGGRLEGPVDSGHSEKF
amyloid nucleation score: inactive

NMLYTKRNTVSSALVIYCVN
amyloid nucleation score: inactive

NMQLVYDRMDE
amyloid nucleation score: inactive

NMRRRYC
amyloid nucleation score: inactive

NMSTAWRRGNPVCTDSKYRV
amyloid nucleation score: inactive

NMTTLVKTMEDNMDSCISGV
amyloid nucleation score: 1.12 ± 0.11

NMTVSHWGLTMSRL
amyloid nucleation score: 1.26 ± 0.11

NMVTYTMIWLWMSMAAPS
amyloid nucleation score: inactive

NNCVITFFEFSTWGCLYLKF
amyloid nucleation score: inactive

NNFNISLRVRRSFKKCFFVR
amyloid nucleation score: 1.85 ± 0.077

NNFTVAWFYRHGSLSISFGY
amyloid nucleation score: inactive

NNIVNSLYFEMGYGVN
amyloid nucleation score: inactive

NNRCNKFPGYTL
amyloid nucleation score: inactive

NNRLMYTSHISHACSYQMLK
amyloid nucleation score: inactive

NNTEHS
amyloid nucleation score: inactive

NNTVDDSVFWNELDGHTWLV
amyloid nucleation score: inactive

NNYSRVLSSIIEGIVIR
amyloid nucleation score: inactive

NNYTSPMHRFRSNLFHCVSA
amyloid nucleation score: inactive

NPKSSPVVTFWGTGYFSAGV
amyloid nucleation score: inactive

NPLYVFDRI
amyloid nucleation score: -0.71 ± 0.53

NQCAS
amyloid nucleation score: inactive

NRFVIIFSCLCFCPQSDMEL
amyloid nucleation score: 2.37 ± 0.083

NRIFIGQVFRIIGPWLGMYH
amyloid nucleation score: inactive

NRKGIR
amyloid nucleation score: -0.009 ± 0.58

NRKNTKHLIFFYVFVT
amyloid nucleation score: inactive

NRQMLYILEINSIIFIQSFC
amyloid nucleation score: 0.903 ± 0.16

NRRYFVELCGGNFM
amyloid nucleation score: inactive

NRVED
amyloid nucleation score: inactive

NRVFPANLSSLSSCSTFTLW
amyloid nucleation score: inactive

NRVLSVFDLFLRVAFASRFR
amyloid nucleation score: inactive

NRVPQWRRRQVGGD
amyloid nucleation score: inactive

NRYGGSAQGHPMWVTTSREW
amyloid nucleation score: inactive

NRYLVVLRSCS
amyloid nucleation score: inactive

NSCIFQTRMSGSYETVYHAP
amyloid nucleation score: 0.054 ± 0.45

NSDATIWYFHRCSRLYVAGM
amyloid nucleation score: inactive

NSFVVTCLVSVGKRGKSRWL
amyloid nucleation score: 1.25 ± 0.13

NSIILFWRLSRGVYSFLPHK
amyloid nucleation score: inactive

NSLCKLGFFSMVKYV
amyloid nucleation score: inactive

NSNIQKHICVQFVKRWLEPC
amyloid nucleation score: inactive

NSNSGFLVSFLWLSFWNSIS
amyloid nucleation score: inactive

NSSLY
amyloid nucleation score: inactive

NSSNII
amyloid nucleation score: 2.56 ± 0.067

NSSSNE
amyloid nucleation score: 1.01 ± 0.22

NSVDP
amyloid nucleation score: inactive

NSVHREECFLITF
amyloid nucleation score: inactive

NTFCIFALTYIQWVPYLAMF
amyloid nucleation score: inactive

NTGLAFTSYMTMDLLCISGA
amyloid nucleation score: inactive

NTNRSLENDCIRALRQCGLV
amyloid nucleation score: inactive

NTPFFGTGLSQTIAVKHLQM
amyloid nucleation score: inactive

NTPRRLHSYLFSTLWY
amyloid nucleation score: inactive

NTQNLNRVVCLGL
amyloid nucleation score: inactive

NTRKHFVSWCAHPDEDSSFM
amyloid nucleation score: inactive

NTRREDSGWTNLCFWCARN
amyloid nucleation score: 2.01 ± 0.052

NTRTLSMYAVHGNIRVFMAE
amyloid nucleation score: 0.917 ± 0.17

NTSDPSNRFLPFLYVRLHSS
amyloid nucleation score: inactive

NTSGKCVKIDVRLNTVTS
amyloid nucleation score: inactive

NTSLRYIKLFSVNDALPLP
amyloid nucleation score: inactive

NTTHNVNV
amyloid nucleation score: inactive

NVFMTWYTARGFMCYPSWDR
amyloid nucleation score: 0.324 ± 0.43

NVGNRCYWWVLMARLLSIFR
amyloid nucleation score: inactive

NVIGPSNRVTSWMVKSMQMY
amyloid nucleation score: inactive

NVIYFHTQGMY
amyloid nucleation score: inactive

NVLLFLIVKHSVGIFVV
amyloid nucleation score: inactive

NVLVN
amyloid nucleation score: inactive

NVMDCSYITNVNIYSHHWDY
amyloid nucleation score: 2.1 ± 0.055

NVNILFDNLIRDWFVSMWED
amyloid nucleation score: inactive

NVNMYIDFVLIDMNWQNCTQ
amyloid nucleation score: 3.05 ± 0.062

NVPKPGTFFCDKCYYGCVWD
amyloid nucleation score: 0.642 ± 0.48

NVRLYHFSGET
amyloid nucleation score: 0.031 ± 0.41

NVRVGILQR
amyloid nucleation score: inactive

NVSFILLYGQCSECTQDA
amyloid nucleation score: 2.03 ± 0.067

NVSLVTVWWDNHY
amyloid nucleation score: inactive

NVVWIYTIFRGVCFGYRRWA
amyloid nucleation score: inactive

NVYFGRYFI
amyloid nucleation score: inactive

NWEFDSNAILDSMLVMNRLT
amyloid nucleation score: inactive

NWFTMSNFMFYRTFCFIYSS
amyloid nucleation score: inactive

NWHDYSSGVGLKIRGECMNV
amyloid nucleation score: inactive

NWNSSHLNREYTRHFSGMMV
amyloid nucleation score: inactive

NWSLSKSRHIPLGTCRGISY
amyloid nucleation score: -0.201 ± 0.84

NWSTIECMYMASVVLNARFG
amyloid nucleation score: inactive

NYFGPGKQWPID
amyloid nucleation score: inactive

NYGGFKDFG
amyloid nucleation score: 1.51 ± 0.088

NYLGWPDIKCHGYVDSFLFV
amyloid nucleation score: inactive

NYLKFCFSCRCIVLSRTVSW
amyloid nucleation score: inactive

NYLRSVLMASGWYWILCIHF
amyloid nucleation score: inactive

NYPLRFLGKLAAT
amyloid nucleation score: inactive

NYPSYSMHNDIFYAFNFSIS
amyloid nucleation score: 2.17 ± 0.084

NYSSAQEYKVSQERIS
amyloid nucleation score: inactive

NYVVIPRFMYLVQIYLKVFW
amyloid nucleation score: -0.064 ± 0.8

NYWEIEYGVAGCSFLEGMRH
amyloid nucleation score: inactive

PAKPGL
amyloid nucleation score: inactive

PARGLDQEMSSKVFMRGYLA
amyloid nucleation score: inactive

PCFLMGPVIPIVFALYKILV
amyloid nucleation score: inactive

PCRKMIQKIVQM
amyloid nucleation score: inactive

PDAVTILGGVYHVVQSWG
amyloid nucleation score: inactive

PDGTQINFN
amyloid nucleation score: inactive

PDLIDVFGE
amyloid nucleation score: inactive

PDLRLMVVCASYPGSATRAM
amyloid nucleation score: inactive

PECFVTGIRGTSCCRESVD
amyloid nucleation score: inactive

PEEDRFLTQSPMLRFIITHM
amyloid nucleation score: inactive

PEKMFPSPVTATRFANCVL
amyloid nucleation score: inactive

PEPHLKSEKYNCSGDWPLPL
amyloid nucleation score: inactive

PFAEQRRL
amyloid nucleation score: inactive

PFCVGIQFDSEKPLVYFNLL
amyloid nucleation score: inactive

PFFCYWVTMKKVIFDTGVFA
amyloid nucleation score: inactive

PFGGMVLLILNDAFSMVYVS
amyloid nucleation score: inactive

PFVFTLNDQCGGIRSLICVL
amyloid nucleation score: inactive

PGCAAWRRSYVS
amyloid nucleation score: inactive

PGDNIYILMGVYKGILWWAE
amyloid nucleation score: inactive

PGHIYVML
amyloid nucleation score: inactive

PGLRVNYFRGESLDVYIVEE
amyloid nucleation score: 2.14 ± 0.071

PGSFNLILVTYIGLLQKLLH
amyloid nucleation score: 0.993 ± 0.16

PHAYTVIDSSRFRPKERLCG
amyloid nucleation score: inactive

PHCPELEQQVKCGTS
amyloid nucleation score: 0.178 ± 0.26

PHRFYYYWYSWCFILSNSCQ
amyloid nucleation score: inactive

PKALVFNLEDDLQGIWSVT
amyloid nucleation score: 2.1 ± 0.079

PKIVYLLAFIVKIELVILTD
amyloid nucleation score: inactive

PKSYRSGSAVFLGFVSWYRW
amyloid nucleation score: inactive

PLFWNGSC
amyloid nucleation score: inactive

PLKCGFGPACPDFYIVEGGK
amyloid nucleation score: inactive

PLRVRNQYRRLMISANQPDW
amyloid nucleation score: inactive

PLSNNKVVWWYYL
amyloid nucleation score: inactive

PLVYLGSLSGDQHWLYFSKE
amyloid nucleation score: inactive

PMERGMCLMLGSLVG
amyloid nucleation score: 0.942 ± 0.093

PMQTSNLNYCVCYCCAVRTF
amyloid nucleation score: 0.88 ± 0.34

PNCLMS
amyloid nucleation score: inactive

PNIMCYLVAMCVGLKFPARW
amyloid nucleation score: inactive

PNNSLETTYFRVTWSFE
amyloid nucleation score: inactive

PNWNYSSLGQTSGQSSRHTS
amyloid nucleation score: inactive

PNYPDLYHFLICSLCSSFVT
amyloid nucleation score: 1.84 ± 0.076

PPRLTS
amyloid nucleation score: inactive

PRCARYYSKLFFCFSDLFLS
amyloid nucleation score: 0.233 ± 0.25

PRCDYYQ
amyloid nucleation score: inactive

PRIQKSWVGAM
amyloid nucleation score: inactive

PRIRD
amyloid nucleation score: inactive

PRMRA
amyloid nucleation score: inactive

PRQTVISASQPDLNIRGFLC
amyloid nucleation score: inactive

PSGHV
amyloid nucleation score: inactive

PSINWASVTVLGCAHSNFRC
amyloid nucleation score: 2.29 ± 0.064
